Results: PMC5736413

Experiments:
[1] = biological target: FH19–20 19–20 (Homo sapiens) (UniProt P08603); assay: SPR; conditions: cited from earlier work
[2] = biological target: recombinant mouse C3d (C1010A) (mouse) (UniProt P01027); assay: SPR
recombinant mouse C3d (C1010A) (mouse), sequence (P01027 1002-1303 C1010A): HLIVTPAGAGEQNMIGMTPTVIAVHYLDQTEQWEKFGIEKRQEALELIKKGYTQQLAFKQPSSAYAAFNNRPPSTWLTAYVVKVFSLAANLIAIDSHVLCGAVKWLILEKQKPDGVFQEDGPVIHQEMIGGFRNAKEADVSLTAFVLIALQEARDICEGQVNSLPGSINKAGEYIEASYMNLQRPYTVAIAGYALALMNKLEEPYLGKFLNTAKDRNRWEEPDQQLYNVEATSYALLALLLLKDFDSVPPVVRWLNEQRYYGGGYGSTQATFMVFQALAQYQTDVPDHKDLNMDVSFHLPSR

FH19–20 19–20 (Homo sapiens), sequence (P08603 1104-1231): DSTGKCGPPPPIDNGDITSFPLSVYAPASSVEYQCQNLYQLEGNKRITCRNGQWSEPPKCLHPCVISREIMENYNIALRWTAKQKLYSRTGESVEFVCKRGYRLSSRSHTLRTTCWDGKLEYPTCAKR
C3d C3d, sequence (P01024 1002-1303): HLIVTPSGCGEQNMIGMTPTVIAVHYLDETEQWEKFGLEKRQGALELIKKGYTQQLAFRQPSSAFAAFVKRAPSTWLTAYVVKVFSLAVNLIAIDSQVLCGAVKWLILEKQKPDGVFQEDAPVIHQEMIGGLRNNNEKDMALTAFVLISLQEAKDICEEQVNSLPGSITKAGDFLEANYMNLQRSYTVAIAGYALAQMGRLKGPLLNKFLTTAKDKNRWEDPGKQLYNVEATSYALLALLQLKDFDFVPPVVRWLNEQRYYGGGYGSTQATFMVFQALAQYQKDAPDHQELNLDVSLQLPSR

Row | Kd [2] [nM] | Substance | Kd [1] [nM]
1 |  | C3d C3d (from UniProt P01024) | 180
2 | 136 | recombinant mouse Factor H-related protein A (prototype, class A clone 3A4/5G4) (natural protein) | 
3 | 546 | recombinant mouse Factor H-related protein B (natural protein) | 
4 | 1040 | recombinant mouse Factor H-related protein C (natural protein) | 
